Assay results from IntAct's records for PubMed 16873060.

B1: Protein PML (Homo sapiens), P29590 (parent)
chain: MEPAPARSPRPQQDPARPQEPTMPPPETPSEGRQPSPSPSPTERAPASEEEFQFLRCQQCQAEAKCPKLLPCLHTLCSGCLEASGMQCPICQAPWPLGADTPALDNVFFESLQRRLSVYRQIVDAQAVCTRCKESADFWCFECEQLLCAKCFEAHQWFLKHEARPLAELRNQSVREFLDGTRKTNNIFCSNPNHRTPTLTSIYCRGCSKPLCCSCALLDSSHSELKCDISAEIQQRQEELDAMTQALQEQDSAFGAVHAQMHAAVGQLGRARAETEELIRERVRQVVAHVRAQERELLEAVDARYQRDYEEMASRLGRLDAVLQRIRTGSALVQRMKCYASDQEVLDMHGFLRQALCRLRQEEPQSLQAAVRTDGFDEFKVRLQDLSSCITQGKDAAVSKKASPEAASTPRDPIDVDLPEEAERVKAQVQALGLAEAQPMAVVQSVPGAHPVPVYAFSIKGPSYGEDVSNTTTAQKRKCSQTQCPRKVIKMESEEGKEARLARSSPEQPRPSTSKAVSPPHLDGPPSPRSPVIGSEVFLPNSNHVASGAGEAEERVVVISSSEDSDAENSSSRELDDSSSESSDLQLEGPSTLRVLDENLADPQAEDRPLVFFDLKIDNETQKISQLAAVNRESKFRVVIQPEAFFSIYSKAVSLEVGLQHFLSFLSSMRRPILACYKLWGPGLPNFFRALEDINRLWEFQEAISGFLAALPLIRERVPGASSFKLKNLAQTYLARNMSERSAMAAVLAMRDLCRLLEVSPGPQLAQHVYPFSSLQCFASLQPLVQAAVLPRAEARLLALHNVSFMELLSAHRRDRQGGLKKYSRYLSLQTTTLPPAQPAFNLQALGTYFEGLLEGPALARAEGVSTPLAGRGLAERASQQS

Variants of: B1
Details: with csk21_human CSNK2A1, P68400
csk21_human CSNK2A1, P68400, sequence (P68400 whole entry, looked up): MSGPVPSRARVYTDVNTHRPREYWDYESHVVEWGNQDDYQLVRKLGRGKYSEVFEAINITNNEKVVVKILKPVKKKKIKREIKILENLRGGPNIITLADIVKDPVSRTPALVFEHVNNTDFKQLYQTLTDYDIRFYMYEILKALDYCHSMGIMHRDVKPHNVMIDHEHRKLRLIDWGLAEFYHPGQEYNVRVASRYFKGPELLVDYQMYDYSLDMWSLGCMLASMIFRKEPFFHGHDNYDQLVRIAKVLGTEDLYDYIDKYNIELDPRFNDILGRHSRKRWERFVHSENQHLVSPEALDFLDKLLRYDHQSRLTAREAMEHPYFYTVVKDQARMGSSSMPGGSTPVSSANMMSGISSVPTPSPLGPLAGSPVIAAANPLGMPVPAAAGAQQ

effect of a mutation on the interaction | Variant
decreasing interaction | S518A
